{
  "source": "patent US20150246945A1",
  "about": "(JAPANESE FOUNDATION FOR CANCER RESEARCH, published 2015)",
  "binders": {"B1": {"name": "Ep114(L3A) variant phage (peptide)", "chain": "KHAQCVRNICWS", "modifications": "not fully specified (bridges); cysteine pairing not given here; also: displayed on phage", "notes": "not shown: not described"}, "B2": {"name": "Ep114(K1A) variant phage (peptide)", "chain": "AHLQCVRNICWS", "modifications": "not fully specified (bridges); cysteine pairing not given here; also: displayed on phage", "notes": "also called variant in which lysine at the 1st residue was substituted by alanine (A); not shown: not described"}, "B3": {"name": "Ep114(K1S) variant phage (peptide)", "chain": "SHLQCVRNICWS", "modifications": "not fully specified (bridges); cysteine pairing not given here; also: displayed on phage", "notes": "also called variant in which lysine at the 1st residue was substituted by serine (S); not shown: not described"}, "B4": {"name": "Ep114(K1N) variant phage (peptide)", "chain": "NHLQCVRNICWS", "modifications": "not fully specified (bridges); cysteine pairing not given here; also: displayed on phage", "notes": "also called variant in which lysine at the 1st residue was substituted by asparagine (N); not shown: not described"}, "B5": {"name": "Ep114(K1I) variant phage (peptide)", "chain": "IHLQCVRNICWS", "modifications": "not fully specified (bridges); cysteine pairing not given here; also: displayed on phage", "notes": "also called variant in which lysine at the 1st residue was substituted by isoleucine (I); not shown: not described"}, "B6": {"name": "Ep114-displaying phage (peptide)", "chain": "KHLQCVRNICWS", "modifications": "cysteine pairing not given here; also: displayed on phage", "notes": "not shown: fusion and linker not described"}, "B7": {"name": "Ep114 peptide (peptide)", "peptide": "KHLQCVRNICWS", "modifications": "disulfide 5-10; also: FITC-modified, position not given here", "notes": "Synthetic peptide, FITC-modified in fluorescence depolarization and cell staining"}, "B8": {"name": "Ep133 peptide (peptide)", "peptide": "EHLHCLGSLCWP", "modifications": "disulfide 5-10; also: FITC-modified, position not given here", "notes": "as for B7"}, "B9": {"name": "Ep301 peptide (peptide)", "peptide": "KSLQCINNLCWP", "modifications": "disulfide 5-10; also: FITC-modified, position not given here"}, "B10": {"name": "PE184 peptide (peptide)", "peptide": "Ac-KHLQCVRNICWSGGSGGSK(Biotin)-NH2", "modifications": "not fully specified (bridges); printed as Ac-KHLQCVRNICWSGGSGGSK(biotin)-NH2; cysteine pairing not given here", "notes": "Ep114 with the linker GGSGGSK, biotin-modified"}, "B11": {"name": "PE185 peptide (peptide)", "peptide": "Ac-KHLQCVRNICWSNNNNSNNNNK(Biotin)-NH2", "modifications": "not fully specified (bridges); printed as Ac-KHLQCVRNICWSNNNNSNNNNK(biotin)-NH2; cysteine pairing not given here"}, "B12": {"name": "EpCAM partial sequence (sequence of EpCAM from residue 106 to 119) (peptide)", "peptide": "KAKQCNGTSMCWPK", "modifications": "cysteine pairing not given here; also: FITC-modified, position not given here"}, "B13": {"name": "Ep301 control (peptide)", "peptide": "KSLQSINNLSWP", "modifications": "also: FITC-modified, position not given here", "notes": "Ep301 with cysteine at positions 5 and 10 substituted by serine"}, "B14": {"name": "Ep114(K1Y) variant phage (peptide)", "chain": "YHLQCVRNICWS", "modifications": "not fully specified (bridges); cysteine pairing not given here; also: displayed on phage", "notes": "also called variant in which lysine was substituted by tyrosine (Y); not shown: not described"}, "B15": {"name": "Ep114(K1F) variant phage (peptide)", "chain": "FHLQCVRNICWS", "modifications": "not fully specified (bridges); cysteine pairing not given here; also: displayed on phage", "notes": "also called variant in which lysine was substituted by phenylalanine (F); not shown: not described"}, "B16": {"name": "Ep114(K1W) variant phage (peptide)", "chain": "WHLQCVRNICWS", "modifications": "not fully specified (bridges); cysteine pairing not given here; also: displayed on phage", "notes": "also called variant in which lysine was substituted by tryptophan (W); not shown: not described"}, "B17": {"name": "Ep114(K1M) variant phage (peptide)", "chain": "MHLQCVRNICWS", "modifications": "not fully specified (bridges); cysteine pairing not given here; also: displayed on phage", "notes": "also called variant in which lysine was substituted by methionine (M); not shown: not described"}},
  "note": "Bridge positions count the residues as written; N and C are the ends. Ends that are not written are not given here. * marks the point of attachment. Biotin = O=C1N[C@H]2[C@H](CS[C@H]2CCCCC(=O)*)N1",
  "data": [
    {"target": "T1, purified EpCAM (extracellular domain with myc and His tags at the C terminus, expressed in HEK-293T cells) (UniProt P16422 24-265, limits assumed)", "T1 construct": "extracellular domain; also called epithelial cell adhesion molecule; CD326", "T1 sequence (looked up)": "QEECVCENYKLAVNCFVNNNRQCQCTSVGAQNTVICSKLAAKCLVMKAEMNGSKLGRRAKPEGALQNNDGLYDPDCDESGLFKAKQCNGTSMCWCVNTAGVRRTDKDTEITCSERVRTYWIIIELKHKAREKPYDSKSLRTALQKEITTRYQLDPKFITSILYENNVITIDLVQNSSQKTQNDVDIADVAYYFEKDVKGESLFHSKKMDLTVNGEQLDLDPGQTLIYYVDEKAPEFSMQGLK", "experiment": "phage bound to EpCAM, captured on beads, phages counted", "method": "The analysis was conducted using the variants in which lysine at the 1st residue was substituted by alanine (A), asparagine (N), serine (S), or isoleucine (I), and M13KE, Ep114, and the variant in which leucine at the 3rd residue was substituted by alanine as controls. Each phage of 1×10¹⁰ PFU was bound to 1 μg of EpCAM, and then mixed with 0.4 mg of beads pretreated overnight with 0.5% BSA and B&W buffer (5 mM Tris-HCl (pH 7.5), 0.5 mM EDTA, and 1 M NaCl). The number of phages bound to the beads was counted.", "values": [
      {"binder": "B1", "binding result": "binds"},
      {"binder": "B2", "binding result": "binds"},
      {"binder": "B3", "binding result": "binds"},
      {"binder": "B4", "binding result": "binds"},
      {"binder": "B5", "binding result": "binds"},
      {"binder": "B6", "binding result": "binds"}
    ]},
    {"target": "T1, purified EpCAM (extracellular domain …)", "experiment": "fluorescence depolarization, FITC-modified peptide, Hill fit", "method": "(§1) Each FITC-modified EpCAM peptide or control peptide was suspended at a concentration of approximately 100 μM in PBS. After centrifugation, the supernatant was collected and diluted 10-fold, and the absorbance was measured at 495 nm From the measurement value, the molar concentration of the peptide was determined using the formula of Beer-Lambert of the following expression 1: […]\n(§2) EpCAM is diluted with PBS into several concentrations from 0 until reaching equilibrium (40 nM for the Ep133 peptide), and the FITC-modified peptide whose precise concentration has been measured by the aforementioned method is added to the dilutions thus prepared. The sample was left at a temperature for measurement for 30 minutes or longer and subjected to polarization measurement using a spectrofluorometer FP-6500 (JASCO Corp.) equipped with an automatic polarization measurement unit (JASCO Corp., APH-103). Kd was estimated by curve fitting according to the Hill equation.", "units": {"Kd": "nM"}, "values": [
      {"binder": "B7", "Kd": 1.6},
      {"binder": "B8", "Kd": 1.5},
      {"binder": "B9", "Kd": 20}
    ]},
    {"target": "T2, EpCAM, whole protein on cells (HT-29, MCF-7, 293T transfected with full-length EpCAM plasmid pkk196) or on … (UniProt P16422 24-314, limits assumed)", "T2 construct": "whole, on cells; Used for both cell-surface EpCAM and EpCAM carried on HT-29 exosomes; the assay field says which; also called EpCAM on HT-29; EpCAM-expressing cells", "T2 sequence (looked up)": "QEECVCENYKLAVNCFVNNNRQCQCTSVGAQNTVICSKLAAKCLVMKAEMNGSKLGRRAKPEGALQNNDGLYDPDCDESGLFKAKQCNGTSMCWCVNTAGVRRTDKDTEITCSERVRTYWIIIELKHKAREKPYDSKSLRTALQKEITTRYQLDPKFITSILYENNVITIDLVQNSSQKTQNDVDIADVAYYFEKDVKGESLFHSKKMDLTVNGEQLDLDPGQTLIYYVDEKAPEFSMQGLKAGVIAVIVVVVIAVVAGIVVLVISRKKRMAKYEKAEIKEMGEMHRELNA", "experiment": "pull-down of HT-29 exosomes on peptide-loaded streptavidin beads, Western blot with anti-EpCAM", "method": "250 μg of streptavidin-magnetic beads (Dynabeads® M-280 streptavidin, VERITAS Corp.) in TBS containing 2% BSA was added to 20 μg of the biotinylated Ep114 peptide and shaken at room temperature for 30 minutes, followed by washing with TBS. Beads reacted without the peptide were used as a control. The anti-Ep114 antibody was added to the beads in TBST and reacted at room temperature for 1 hour. After washing with TBS, the beads were collected. The collected beads were heated at 95° C. for 5 minutes in a SDS sample buffer. After Western-blotting, the anti-Ep114 antibody was detected using HRP-labeled anti-rabbit antibodies.\nThe binding to exosomes was confirmed using the Western blot system in the similar method as in the preceding paragraph 1. Specifically, 20 μg of the biotinylated Ep114 peptide, the PE183 peptide, the PE184 peptide, or the PE185 peptide was bound to 250 μg of streptavidin-magnetic beads and then reacted with exosomes isolated from HT-29 cells as EpCAM-positive cells, followed by Western blot to detect the exosomes using anti-EpCAM polyclonal antibodies (see the left panel of FIG. 5C).", "values": [
      {"binder": "B10", "binding result": "binds"},
      {"binder": "B11", "binding result": "binds"}
    ]},
    {"target": "T1, purified EpCAM (extracellular domain …)", "experiment": "fluorescence depolarization", "method": "as §1, §2", "units": {"fold strength of binding compared with Ep301": "times"}, "values": [
      {"binder": "B7", "fold strength of binding compared with Ep301": "≥ 10"},
      {"binder": "B8", "fold strength of binding compared with Ep301": "≥ 10"}
    ]},
    {"target": "T1, purified EpCAM (extracellular domain …)", "experiment": "fluorescence depolarization, FITC-modified peptide", "method": "as §1, §2\nThe dissociation constants of the EpCAM-binding peptide Ep301 (FIG. 2(D)) disclosed in Patent Literature 2 and Ep301 control (FIG. 2(E)), which was a control peptide derived from Ep301 by the substitution of cysteine at positions 5 and 10 by serine, and a sequence of EpCAM from residue 106 to 119 (FIG. 2(F)) having partial homology to EpCAM-binding peptides were measured similarly.", "values": [
      {"binder": "B12", "binding result": "no binding"},
      {"binder": "B13", "binding result": "no binding"}
    ]},
    {"target": "T1, purified EpCAM (extracellular domain …)", "experiment": "phage ELISA on immobilized EpCAM", "method": "The phages displaying the peptides in which each amino acid of Ep114 was substituted by alanine are added to the EpCAM- or anti-Ep114 antibody-immobilized plate, and the plate is left still at room temperature for 1 hour. After washing with TBST, HRP-labeled anti-M13 antibodies were reacted therewith, followed by detection using ABTS (2,2′-azinobis(3-ethylbenzothiazoline-6-sulfonic acid). The binding activity against EpCAM is shown in FIG. 3A, and the binding activity against the anti-Ep114 antibody is shown in FIG. 3B. M13KE is a phage displaying no peptide and is a negative control.\nAs with the alanine substitution variants, variant phages were prepared by the introducing specific mutations to lysine at the 1st residue based on inverse PCR method and analyzed for binding activity against EpCAM. The analysis method involved evaluation by ELISA in the same way as in the functional analysis of the Ep114 peptide by the alanine scanning. In the figure, EpCAM+ and EpCAM− represent the presence and absence of EpCAM immobilization onto a plate, respectively. Corrected value represents a value subtracting the measurement of EpCAM− from the measurement of EpCAM+.", "values": [
      {"binder": "B14", "binding result": "binds"},
      {"binder": "B15", "binding result": "binds"},
      {"binder": "B16", "binding result": "binds"},
      {"binder": "B17", "binding result": "binds"}
    ]}
  ]
}
